# Test results from article PMC8567202, “Phosphoinositide-binding activity of Smad2 is essential for its function in TGF-β signaling” (The Journal of Biological Chemistry, 2021).
# B1: Smad2-W422A: W422A mutant of full-length Smad2; specific PI(4,5)P2 binding-compromised (protein)
# chain: MSSILPFTPPVVKRLLGWKKSAGGSGGAGGGEQNGQEEKWCEKAVKSLVKKLKKTGRLDELEKAITTQNCNTKCVTIPSTCSEIWGLSTANTVDQWDTTGLYSFSEQTRSLDGRLQVSHRKGLPHVIYCRLWRWPDLHSHHELKAIENCEYAFNLKKDEVCVNPYHYQRVETPVLPPVLVPRHTEILTELPPLDDYTHSIPENTNFPAGIEPQSNYIPETPPPGYISEDGETSDQQLNQSMDTGSPAELSPTTLSPVNHSLDLQPVTYSEPAFWCSIAYYELNQRVGETFHASQPSLTVDGFTDPSNSERFCLGLLSNVNRNATVEMTRRHIGRGVRLYYIGGEVFAECLSDSAIFVQSPNCNQRYGWHPATVCKIPPGCNLKIFNNQEFAALLAQSVNQGFEAVYQLTRMCTIRMSFVKGAGAEYRRQTVTSTPCWIELHLNGPLQWLDKVLTQMGSPSVRCSSMS
# modifications: left off: His6, N-terminal, state not stated
# B2: Smad2-E425K: charge-reversal mutant of full-length Smad2; PI(4,5)P2 and TβRI binding-enhanced (protein)
# chain: MSSILPFTPPVVKRLLGWKKSAGGSGGAGGGEQNGQEEKWCEKAVKSLVKKLKKTGRLDELEKAITTQNCNTKCVTIPSTCSEIWGLSTANTVDQWDTTGLYSFSEQTRSLDGRLQVSHRKGLPHVIYCRLWRWPDLHSHHELKAIENCEYAFNLKKDEVCVNPYHYQRVETPVLPPVLVPRHTEILTELPPLDDYTHSIPENTNFPAGIEPQSNYIPETPPPGYISEDGETSDQQLNQSMDTGSPAELSPTTLSPVNHSLDLQPVTYSEPAFWCSIAYYELNQRVGETFHASQPSLTVDGFTDPSNSERFCLGLLSNVNRNATVEMTRRHIGRGVRLYYIGGEVFAECLSDSAIFVQSPNCNQRYGWHPATVCKIPPGCNLKIFNNQEFAALLAQSVNQGFEAVYQLTRMCTIRMSFVKGWGAKYRRQTVTSTPCWIELHLNGPLQWLDKVLTQMGSPSVRCSSMS
# modifications: left off: His6, N-terminal, state not stated
# B3: Smad2- R427A/R428A: double mutant of full-length Smad2; PI(4,5)P2 and TβRI binding-compromised (protein)
# chain: MSSILPFTPPVVKRLLGWKKSAGGSGGAGGGEQNGQEEKWCEKAVKSLVKKLKKTGRLDELEKAITTQNCNTKCVTIPSTCSEIWGLSTANTVDQWDTTGLYSFSEQTRSLDGRLQVSHRKGLPHVIYCRLWRWPDLHSHHELKAIENCEYAFNLKKDEVCVNPYHYQRVETPVLPPVLVPRHTEILTELPPLDDYTHSIPENTNFPAGIEPQSNYIPETPPPGYISEDGETSDQQLNQSMDTGSPAELSPTTLSPVNHSLDLQPVTYSEPAFWCSIAYYELNQRVGETFHASQPSLTVDGFTDPSNSERFCLGLLSNVNRNATVEMTRRHIGRGVRLYYIGGEVFAECLSDSAIFVQSPNCNQRYGWHPATVCKIPPGCNLKIFNNQEFAALLAQSVNQGFEAVYQLTRMCTIRMSFVKGWGAEYAAQTVTSTPCWIELHLNGPLQWLDKVLTQMGSPSVRCSSMS
# modifications: left off: His6, N-terminal, state not stated
# B4: Smad2-K420A: K420A mutant of full-length Smad2; predominantly TβRI binding-compromised (protein)
# chain: MSSILPFTPPVVKRLLGWKKSAGGSGGAGGGEQNGQEEKWCEKAVKSLVKKLKKTGRLDELEKAITTQNCNTKCVTIPSTCSEIWGLSTANTVDQWDTTGLYSFSEQTRSLDGRLQVSHRKGLPHVIYCRLWRWPDLHSHHELKAIENCEYAFNLKKDEVCVNPYHYQRVETPVLPPVLVPRHTEILTELPPLDDYTHSIPENTNFPAGIEPQSNYIPETPPPGYISEDGETSDQQLNQSMDTGSPAELSPTTLSPVNHSLDLQPVTYSEPAFWCSIAYYELNQRVGETFHASQPSLTVDGFTDPSNSERFCLGLLSNVNRNATVEMTRRHIGRGVRLYYIGGEVFAECLSDSAIFVQSPNCNQRYGWHPATVCKIPPGCNLKIFNNQEFAALLAQSVNQGFEAVYQLTRMCTIRMSFVAGWGAEYRRQTVTSTPCWIELHLNGPLQWLDKVLTQMGSPSVRCSSMS
# modifications: left off: His6, N-terminal, state not stated
# B5: Smad2-Y426A: Y426A mutant of full-length Smad2; specific PI(4,5)P2 binding-compromised (protein)
# chain: MSSILPFTPPVVKRLLGWKKSAGGSGGAGGGEQNGQEEKWCEKAVKSLVKKLKKTGRLDELEKAITTQNCNTKCVTIPSTCSEIWGLSTANTVDQWDTTGLYSFSEQTRSLDGRLQVSHRKGLPHVIYCRLWRWPDLHSHHELKAIENCEYAFNLKKDEVCVNPYHYQRVETPVLPPVLVPRHTEILTELPPLDDYTHSIPENTNFPAGIEPQSNYIPETPPPGYISEDGETSDQQLNQSMDTGSPAELSPTTLSPVNHSLDLQPVTYSEPAFWCSIAYYELNQRVGETFHASQPSLTVDGFTDPSNSERFCLGLLSNVNRNATVEMTRRHIGRGVRLYYIGGEVFAECLSDSAIFVQSPNCNQRYGWHPATVCKIPPGCNLKIFNNQEFAALLAQSVNQGFEAVYQLTRMCTIRMSFVKGWGAEARRQTVTSTPCWIELHLNGPLQWLDKVLTQMGSPSVRCSSMS
# modifications: left off: His6, N-terminal, state not stated
# B6: EGFP-Smad2 WT: mouse EGFP-Smad2 wild type transfected into HeLa cells (protein, UniProt Q62432 2-467, looked up)
# Mothers against …: SSILPFTPPVVKRLLGWKKSAGGSGGAGGGEQNGQEEKWCEKAVKSLVKKLKKTGRLDELEKAITTQNCNTKCVTIPSTCSEIWGLSTANTVDQWDTTGLYSFSEQTRSLDGRLQVSHRKGLPHVIYCRLWRWPDLHSHHELKAIENCEYAFNLKKDEVCVNPYHYQRVETPVLPPVLVPRHTEILTELPPLDDYTHSIPENTNFPAGIEPQSNYIPETPPPGYISEDGETSDQQLNQSMDTGSPAELSPTTLSPVNHSLDLQPVTYSEPAFWCSIAYYELNQRVGETFHASQPSLTVDGFTDPSNSERFCLGLLSNVNRNATVEMTRRHIGRGVRLYYIGGEVFAECLSDSAIFVQSPNCNQRYGWHPATVCKIPPGCNLKIFNNQEFAALLAQSVNQGFEAVYQLTRMCTIRMSFVKGWGAEYRRQTVTSTPCWIELHLNGPLQWLDKVLTQMGSPSVRCSSMS
# modifications: EGFP fusion
# notes: mouse EGFP-Smad2 wild type transfected into HeLa cells
# System: TβRI
# Assay: Dual color single-molecule tracking, TβRI and EGFP-Smad2
# Format: cell-based
# Conditions: HeLa cells with endogenous Smad2 suppressed, 10 ng/ml TGF-β
# Procedure: Figure 4 Quantitative imaging analyses of spatiotemporal dynamics of Smad2.A, TIRF images of mouse EGFP-Smad2-WT transfected into HeLa cells whose endogenous Smad2 is suppressed by siRNA. Images were taken before and 5 min after TGF-β stimulation (10 ng/ml) with and without PI(4,5)P2 depletion. A pseudo-coloring scheme was used with orange and blue representing the highest and the lowest intensity, respectively. B, kinetics of TGF-β stimulated (10 ng/ml) PM localization of EGFP-Smad2-WT (blue), -K420A (green), and -W422A (orange) transfected into HeLa cells the endogenous Smad2 of which was suppressed by siRNA. For EGFP-Smad2-WT, the effect of PI(4,5)P2 depletion (black) and TβRI inhibition by SB-431542 (10 μM for 36 h) (red) were measured. Data points indicate average ±S.D. (n = 10 cells). C, spatially resolved PM PI(4,5)P2 concentration ([PI(4,5)P2]) profiles calculated from two-channel cross-sectional images of HeLa cells (before and 5 min after 10 ng/ml TGF-β stimulation and after PI(4,5)P2 depletion). Each cell is a representative of more than ten cells analyzed. Spatially averaged [PI(4,5)P2] values for each cell type are shown. The z-axis scale indicates [PI(4,5)P2] in mol%. A pseudo-coloring scheme with red and blue representing the highest (1.5 mol%) and the lowest (0 mol%) concentration, respectively, is used to illustrate the spatial [PI(4,5)P2] heterogeneity. Scale bars indicate 10 μm. D, dual color single-molecule tracking of EGFP-PLCδ-PH and SNAP-TMR-labeled TβRI at the PM of HeLa cells. Time courses of the half-life of colocalization for SNAP-TMR-labeled TβRI and EGFP-PLCδ-PH after 10 ng/ml TGF-β stimulation were determined with (orange) and without (blue) PI(4,5)P2 depletion. Data points indicate average ±S.D. (n = 10 cells). E, time courses of the half-life of colocalization for SNAP-TMR-labeled TβRI and EGFP-Smad2 determined by dual color single-molecule tracking analysis. Colocalization of TβRI with EGFP-Smad2-WT (blue), -K420A (green), -W422A (orange), E425K (red), Y426A (cyan), and -R427A/R428A (black) transfected into HeLa cells whose endogenous Smad2 was suppressed by siRNA is shown. For EGFP-Smad2-WT, the effect of PI(4,5)P2 depletion (purple) was measured. Data points indicate average ±S.D. (n = 10 cells). […] TEXT PRINTED IN THE PICTURE: (C) PI(4,5)P2: [PI(4,5)P2] = 1.05 ± 0.20 mol% (HeLa unstimulated); [PI(4,5)P2] = 1.00 ± 0.40 mol% (HeLa 5 min after TGFβ); [PI(4,5)P2] = 0.16 ± 0.08 mol% (HeLa After PI(4,5)P2 depletion) DOUBTS OF THE COPYIST ABOUT THIS PICTURE: Panel C: the printed values are measured membrane concentrations of PI(4,5)P2 in HeLa cells under three conditions, not an activity or property of a compound; it is uncertain whether they count as a result for a substance
# Single-molecule imaging was performed using a custom-built total internal reflection fluorescence microscope as described previously. HeLa cells were plated on the 8-well chambered coverglass (Lab-Tek, Thermo Fisher Scientific) at the density of 1 × 10^5 for 24 h, EGFP-Smad2 or mutants and SNAP-tagged TβRI were cotransfected into cells using the jetPRIME system (Polyplus-transfection) according to the manufacturer's protocols. The transfected HeLa cells were serum starved for 16 h and subsequently labeled with SNAP-Cell tetramethylrhodamine (TMR)-Star (New England Biolabs). Labeled cells were washed to remove the free dye, stimulated with 10 ng/ml TGF-β, the two protein molecules were simultaneously tracked and analyzed as described. The images were spatially corrected following the algorithm described previously ([39]). All particle tracking, data analysis, and image processing were carried out with in-house programs written in MATLAB. Colocalization analysis of two molecules was performed with a fixed threshold criterion (i.e., <400 nm) for colocalization ([39]). The same size of PM surface was analyzed for each data. […]
row,Molecule,dynamic colocalization / dwell time with TβRI after TGF-β stimulation
1,B1,much reduced TGFβ-stimulated dynamic colocalization with TβRI
2,B2,stronger interaction with TβRI in terms of both amplitude and duration
3,B3,low response to TGFβ stimulation
4,B4,little response to TGFβ stimulation
5,B5,much reduced TGFβ-stimulated dynamic colocalization with TβRI

# Same assay, conditions: HeLa cells with endogenous Smad2 suppressed, 10 ng/ml TGF-β, n = 10 cells
row,Molecule,time of peak colocalization with TMR-SNAP-TβRI after TGF-β stimulation
1,B6,5 min
